The data set has as its target recombinant Tau (Panvera).

This note sets out measurements from patent US20060015959.

B1: full length human transglutaminase II (protein)
chain: MAEELVLERCDLELETNGRDHHTADLCREKLVVRRGQPFWLTLHFEGRNYEASVDSLTFSVVTGPAPSQEAGTKARFPLRDAVEEGDWTATVVDQQDCTLSLQLTTPANAPIGLYRLSLEASTGYQGSSFVLGHFILLFNAWCPADAVYLDSEEERQEYVLTQQGFIYQGSAKFIKNIPWNFGQFEDGILDICLILLDVNPKFLKNAGRDCSRRSSPVYVGRVVSGMVNCNDDQGVLLGRWDNNYGDGVSPMSWIGSVDILRRWKNHGCQRVKYGQCWVFAAVACTVLRCLGIPTRVVTNYNSAHDQNSNLLIEYFRNEFGEIQGDKSEMIWNFHCWVESWMTRPDLQPGYEGWQALDPTPQEKSEGTYCCGPVPVRAIKEGDLSTKYDAPFVFAEVNADVVDWIQQDDGSVHKSINRSLIVGLKISTKSVGRDEREDITHTYKYPEGSSEEREAFTRANHLNKLAEKEETGMAMRIRVGQSMNMGSDFDVFAHITNNTAEEYVCRLLLCARTVSYNGILGPECGTKYLLNLNLEPFSEKSVPLCILYEKYRDCLTESNLIKVRALLVEPVINSYLLAERDLYLENPEIKIRILGEPKQKRKLVAEVSLQNPLPVALEGCTFTVEGAGLTEEQKTVEIPDPVEAGEEVKVRMDLLPLHMGLHKLVVNFESDKLKAVKGFRNVIIGPA
On to B1, for which the “tau aggregation (high molecular weight total tau immunoreactive protein complex on western blot) in the transglutaminase activity assay” value is “increased, Ca2+-dependent tau aggregation when recombinant tau was added to brain lysate from mice with overexpression of hTGII”.
